Results taken from the nanobody polyreactivity screen of Harvey et al. (2022).

experiment: yeast display, Sf9 membrane polyspecificity reagent, FACS + sequencing; frameworks hold sequencing errors
Outline: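 Synthetic nanobody libraries on Saccharomyces cerevisiae BJ5465 were galactose-induced for 36–48 hours, stained 1 hour at 4 °C with 10% biotinylated, detergent-solubilized Sf9 membrane reagent and enriched on streptavidin microbeads. FACS then separated cells into low and high (top ~1%) gates by anti-HA (expression) and streptavidin (reagent binding) fluorescence. Genes were colony-PCR amplified, MiSeq 2 × 250 sequenced and CDR-length filtered. A clone's polyreactivity label is that of its gate of origin.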

Sequence	polyreactivity (PSR sort gate)
QVQLVESGGGLVQAGGSLRLSCAASGRTFWNYAMGWYRQAPGKERELVAAISSSGGTTYYADSVKGRFTISRDNAKNTVYLQMNSLKPEDTAVYYCAATGVSKPQRSFGYWGQGTQVTVSS	low polyreactivity
QVQLVESGGGLVQAGGSLRLSCAASGRTFWNYAMGWYRQAPGKEREMVAVIRFSDGSTYYADSVKGRFTISRDNAKNTVYLQMNSLKPEDTAVYYCAAKGPRRWGSGFDYWGQGTQVTVSS	low polyreactivity
QVQLVESGGGLVQAGGSLRLSCAASGRTFWTNAMGWYRQAPGKEREFVAAISWRGASTFYADSVKGRFTISRDNAKNTVYLQMNSLNPEDTAVYYCAAQSRTRSFYGKYDSWGQATQVTVSS	low polyreactivity
QVQLVESGGGLVQAGGSLRLSCAASGRTFWVYAMGWYRQATGKERELVATISKSAGITSYADSVKGRFTFSRDNAKNTVYLQMNSLKPEDTAVFYCAADKSYRRVYYWGQGTQVTVSS	low polyreactivity
QVQLVESGGGLVQAGGSLRLSCAASGRTFWWYAMGWYRQAPGKERELVAAITQSGGSTFYADSVKGRFTISRDNAKNTVYLQMNSLKPEDTAVYYWGQGTQVTVSS	low polyreactivity
QVQLVESGGGLVQAGGSLRLSCAASGRTFWWYAMGWYRQAPGKERELVAGISGSTGTTHYADSVKGRFTISRDNAKNTVYLQMNSLKPEDTAGYYCAARRRYYRGFLFDYWGQGTQVTVSS	high polyreactivity
QVQLVESGGGLVQAGGSLRLSCAASGRTFWYNAMGWYRQAPGKERELVAAITSSGGSTYYADSVKGRFTISRDNAKNTVYLQMNSLKPEDTAVYYCNKRPGPYKWPPRHDYWGQGTQVTVSS	low polyreactivity
QVQLVESGGGLVQAGGSLRLSCAASGRTFWYNAMGWYRQAPGKERELVATINSVGSTNYADSVKGRFTISRDNAKNTVYLQMNSLKPEDTAVYDCNAGYGYVRGRKGGAIVKYYYWGQGTQVTVSS	high polyreactivity
QVQLVESGGGLVQAGGSLRLSCAASGRTFWYNARGWYRQAPGKERELVAAITRGGGRTYYADSVKGRFTISRDNAKNTVYLQMNSPKPEDTAVYYCADDSHYDMNYWGQGTQVTVSS	low polyreactivity
QVQLVESGGGLVQAGGSLRLSCAASGRTFWYYAMGWYREAPGKERELVAAITRGGRTNYADSVKGRFTISRDNAKNTVYLQMKSLKPEDTAVYYCAADYRYPAHSYGYWGQGTLVTVSS	high polyreactivity
QVQLVESGGGLVQAGGSLRLSCAASGRTFWYYAMGWYRQAPGKERELVAAITWSGSDTYYADSVKGRFTISRDNAKNTVYLLMNSLKPEDTAVYYCAAEYSYESSGYDYWGQGTQVTVSS	high polyreactivity
QVQLVESGGGLVQAGGSLRLSCAASGRTFWYYAMGWYRQAPGKERELVAGITFTGGRTYYADSVKGRFTISRDNAKNTVYLQMNSLKPEDTAVYYCAKATEYYAESDDYDYWGQGTQVTVSS	low polyreactivity
QVQLVESGGGLVQAGGSLRLSCAASGRTFWYYAMGWYRQAPGKERELVASISASGGSTFYADSVKGRFSISRDHAKNTVYLQMNSLKPEDTAVYYCAAKNAVWRRYEYWGQGTQVTVSS	high polyreactivity
QVQLVESGGGLVQAGGSLRLSCAASGRTFYANAMGWYRQAPGKERELVAAISRGGRTYYADSVKGRFTISRDNAKNTVYLQMNIMIPEDTSVYYCAARHTTTAVYSYYRADGGYWGQGTQVTVSS	low polyreactivity
QVQLVESGGGLVQAGGSLRLSCAASGRTFYANAMVWYRQAPGKERELVAGISYSGGNTYYADSVKGRFTISRDNAKNTVYIQMNSLKPEDTAVYYCAAATVWEYWTYEDWGQGTQVTVSS	low polyreactivity
QVQLVESGGGLVQAGGSLRLSCAASGRTFYAYAMGWYRQAPGKERELVAAINTSGGRTYYADSVKGRFTISRDNAKNTVYLLMNSLKPEDTAVYYCAADVFTFYPRRYDYWGQGTQVTVSS	low polyreactivity
QVQLVESGGGLVQAGGSLRLSCAASGRTFYAYAMGWYRQAPGKERELVAAINTSGGRTYYADSVKGRFTISRDNAKNTVYLQMNSLKPEDTAVYYCAADVYTFYPRRYDYWGQGTQVTVSS	low polyreactivity
QVQLVESGGGLVQAGGSLRLSCAASGRTFYAYAMGWYRQAPGKERELVAAISWRGGRTYYADSVKGRFTISRDNAKNTVYLQMNSLKPEDTAVYYCAAEYSYGFDYWGQGTQVTVSS	high polyreactivity
QVQLVESGGGLVQAGGSLRLSCAASGRTFYAYGMGWYRQAPGKERELVARISSSTGRTYYADSVKGRFTISRDNAKNTVYLQMNSLKPEDTAVYYCAALFYGYRGGGYGGPAAGDYWGQGTQVTVSS	high polyreactivity
QVQLVESGGGLVQAGGSLRLSCAASGRTFYDNTMGWYRQAPGKERELVAAITRNGGSTYYADSVKGRFTISRDNAKNTVYLQMNSLKPEDTAVYYCAVYVAYLYSYYYWGQGTQVSVSS	low polyreactivity
QVQLVESGGGLVQAGGSLRLSCAASGRTFYDYAMGWYRQAPGKERELVAAISSRGGRTYYADSVKGRFTISRDNAKNTVYLQMNSLKPEDSAVYYCAKVVDYNDRDSWGQGTQVTVSS	high polyreactivity
QVQLVESGGGLVQAGGSLRLSCAASGRTFYDYDMGWYRQAPGKERELFAAISGGDSTYYADSVKGRFTISRDNAKNTFYLQLKSLKPEDTAVYDCAVTPRGLPYGAYLLYYWGQGTQVTVSS	low polyreactivity
QVQLVESGGGLVQAGGSLRLSCAASGRTFYDYDMGWYRQAPGKERELVATIRRDGSTYYADSVKGRFTISRDNAKNTVYLQMNSLKPEDTAVYYCAKDGGYPLDEPEFDYWGQGTQVTVSS	low polyreactivity
QVQLVESGGGLVQAGGSLRLSCAASGRTFYEYAMGWYRQAPGKERELVAAITRSGGSTYYADSVKGRFTISRDNAKNTVYLQMNSLKPEDTAVYYCAAYRLQYRVRYYTAYDYWGQGTQVTVSS	high polyreactivity
QVQLVESGGGLVQAGGSLRLSCAASGRTFYEYAMGWYRQAPGKESELVASIRSGGSTFYADSVKGRFTISRDNAKYTVYLQMNSLKPEDTAVYYCAAYRVPPYRYRFARVNYWGQGTQVTVSS	high polyreactivity
QVQLVESGGGLVQAGGSLRLSCAASGRTFYFNAMGWYRQAPGKERELVAAITNSGGSTYYADSVKGRFTISRDNAKNTVYLQMNSLKPEDTAVYYCAATYKDGYWLVPGYGYWGQGTQVTVSS	low polyreactivity
QVQLVESGGGLVQAGGSLRLSCAASGRTFYFNAMGWYRQAPGKERELVATITSDGSTNYADSVKGRFTISRDNAKNTVYLQMNSLKPEDTAVYYCAADYYRDIWPWYPLYNYWGQGTQVTVSS	low polyreactivity
QVQLVESGGGLVQAGGSLRLSCAASGRTFYFYPMGWYRQAPGKERELVAAIRSSGGSTNYADSVKGRFTISRDNAKNTVYLQMNSLKPEDTAVYYFAAKRRAKGNYAFYYWGQGTQVTVSS	high polyreactivity
QVQLVESGGGLVQAGGSLRLSCAASGRTFYFYTMGWYRQAPGKERELVAAITSGGSTNYADSVKGRFTISRDNAKNTVYLQMNSLKPEDTAVYYCAAAYWRPGVRFFGPYDYWGQGTQVTVSS	high polyreactivity
QVQLVESGGGLVQAGGSLRLSCAASGRTFYFYVKGWYRQAPAKERELVARISWSGGSTYYADSVKGRFTISRDNAKNTVYLQMNSLKPEDTAVYYCARQYIYPSSGEYDSWGQGTQVTVSS	low polyreactivity
